Results from US12466859B2, “Desmoglein 2 (DSG2) binding proteins and uses therefor” (UNIVERSITY OF WASHINGTON THROUGH ITS CENTER FOR …, priority 2013, dated 2025).
Where two headings read alike, the source gives them in different places.

How the values were obtained:
Ad3-GFP virus [1] = settings: previous studies (37, 41, 42); cited from earlier work
DSG2 [2] = target: T1, DSG2 (Homo sapiens, UniProt Q14126); settings: previous studies (37, 41, 42); cited from earlier work
T1 construct: Western blot using soluble recombinant DSG2 as a probe; purchased Leinco Technologies, Inc. (St. Louis, MO)
T1 sequence (Q14126 50-609 limits assumed): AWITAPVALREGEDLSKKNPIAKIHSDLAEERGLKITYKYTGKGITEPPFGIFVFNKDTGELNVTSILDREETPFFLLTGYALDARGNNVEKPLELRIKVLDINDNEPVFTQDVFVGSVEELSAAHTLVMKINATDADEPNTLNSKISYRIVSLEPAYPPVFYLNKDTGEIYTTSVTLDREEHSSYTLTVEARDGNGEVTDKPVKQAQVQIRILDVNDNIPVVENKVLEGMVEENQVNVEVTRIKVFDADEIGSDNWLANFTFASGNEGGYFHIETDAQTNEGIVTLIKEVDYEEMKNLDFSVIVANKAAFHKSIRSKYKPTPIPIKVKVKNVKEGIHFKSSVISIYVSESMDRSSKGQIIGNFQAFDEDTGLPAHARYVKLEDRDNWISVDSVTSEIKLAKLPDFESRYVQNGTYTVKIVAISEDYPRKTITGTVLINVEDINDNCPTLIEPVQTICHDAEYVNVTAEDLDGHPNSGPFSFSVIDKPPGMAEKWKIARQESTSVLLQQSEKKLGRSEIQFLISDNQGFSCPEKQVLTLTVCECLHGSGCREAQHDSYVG

[3] = system: polarized colon cancer T84 cells; settings: previous studies (37, 41, 42); cited from earlier work
DSG2 [4] = target: T1, DSG2; assay: Surface plasmon resonance of Ad3 fiber knobs on immobilized DSG2; assay type: binding; settings: knobs without dimerization domain
Experimental: FIG. 7A-7B. SPR analysis of non-dimerized Ad3 fiber knob interactions with DSG2. FIG. 7A) DSG2 was immobilized on sensorchips, and background was automatically subtracted from the control flow cell. The Ad3 fiber knobs (w/o dimerization domain: “noDD”) were injected for 3 minutes at 2.5 μg/ml followed by a 2.5 minutes dissociation period. FIG. 7B) Summary of SPR data. […] The extracted data are resumed in the table. Wt=Ad3 fiber knob without mutations FIG. 8A-8G. Electron microscopy and 3D structure of Ad3 fiber knob mutant JO-2.
Surface Plasmon Resonance: Acquisitions were done on a BIAcore 3000 instrument. HBS-N (GE-Healthcare, Pittsburgh, PA) supplemented with 2 mM CaCl2) was used as running buffer in all experiments at a flow rate of 5 [l/min. Immobilization on CM4 sensorchip (BIAcore) was performed using DSG2 at 10 μg/ml diluted in 10 mM Acetate buffer pH 4.5 injected for 10 minutes on ethyl(dimethylaminopropyl) carbodiimide (EDC)/N-Hydroxysuccinimide (NHS) activated flow-cell. A control flow-cell was activated by (EDC/NHS) and inactivated by ethanolamine. Different concentrations of Ad3 fiber knob proteins were injected for 3 minutes association followed by 2.5 minutes dissociation time, and the signal was automatically subtracted from the background of the ethanolamine deactivated EDC-NHS flow cell. Kinetic and affinity constants were calculated using the BIAeval software.

soluble recombinant DSG2 = target: T2, soluble recombinant DSG2 (Homo sapiens, UniProt Q14126); assay: Western blot of dimeric Ad3 fiber knob mutants with soluble recombinant DSG2 as probe; assay type: binding; settings: dimerized knob mutants compared to JO-1
T2 construct: Western blot using soluble recombinant DSG2 as a probe; purchased Leinco Technologies, Inc. (St. Louis, MO)
T2 sequence (Q14126 50-609 limits assumed): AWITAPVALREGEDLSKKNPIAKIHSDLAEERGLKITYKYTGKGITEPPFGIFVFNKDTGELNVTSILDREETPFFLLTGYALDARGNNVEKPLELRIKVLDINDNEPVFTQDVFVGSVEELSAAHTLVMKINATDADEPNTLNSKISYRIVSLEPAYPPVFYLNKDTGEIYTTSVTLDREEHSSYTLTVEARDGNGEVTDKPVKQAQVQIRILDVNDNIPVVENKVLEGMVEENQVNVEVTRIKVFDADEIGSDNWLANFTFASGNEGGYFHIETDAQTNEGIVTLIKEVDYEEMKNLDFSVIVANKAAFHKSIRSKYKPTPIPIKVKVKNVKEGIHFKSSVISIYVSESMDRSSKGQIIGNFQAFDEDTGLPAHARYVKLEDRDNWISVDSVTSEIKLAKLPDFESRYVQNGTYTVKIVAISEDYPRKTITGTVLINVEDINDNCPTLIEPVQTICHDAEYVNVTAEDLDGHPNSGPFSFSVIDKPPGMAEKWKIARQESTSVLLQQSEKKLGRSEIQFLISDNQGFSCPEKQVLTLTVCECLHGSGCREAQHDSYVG
Description: FIG. 1A-1F. Residues found to be critically involved in binding to DSG2. FIG. 1A) Shown are the amino acid sequences of the Ad3 and Ad14p1 fiber knob. Beta sheets present in the Ad3 knob (PDB accession number 1H7Z_A) and Ad14 knob (PDB: 3F0Y_A) are indicated by lines. Black arrows indicate residues within the Ad3 fiber knob which, when mutated individually, ablate or reduce binding to DSG2. […] FIG. 1B) Schematic structure of dimeric Ad3 fiber knob mutants. The fiber knob domain and one shaft motif was fused through a flexible linker to a homodimerizing K-coil domain (41). The proteins are self-dimerizing and can be purified by His-Ni-NTA affinity chromatography. FIG. 1C-FIG. 1F) Analysis of binding of dimeric Ad3 fiber knob mutants to soluble DSG2. FIG. 1C and FIG. 1D) Coomassie staining. 10 μg of purified Ad3 fiber knob (unboiled) were loaded per lane. Trimeric forms of the fiber knobs are indicated by an arrow. The gel contained SDS and the loading buffer containing DTT, which caused the disassembly of dimers of trimeric fiber knobs as previously reported (41). FIG. 1E and FIG. 1F): Western blot using soluble recombinant DSG2 as a probe, followed by anti-DSG2-mAb and anti-mouse IgG-HRP. For comparison, JO-1 (0.5 μg/lane) is shown. The Western blots were scanned and signals were quantified.
Western Blot: Mini-PROTEAN precast gels (BIO-RAD, Hercules, CA) with 4-15% gradient polyacrylamide were used. A total of 1 μg protein mixed with 2× loading buffer (10 mM Tris-HCl, pH6.8, 200 mM DTT, 4% SDS, 20% glycerol, 0.2% bromophenol blue) was loaded per lane. Samples were either boiled (B) for 5 min or loaded unboiled (UB). The following running buffer was used: 25 mM Tris, pH8.3, 0.192 M glycine, 0.1% SDS. After electrophoresis, proteins were transferred to nitrocellulose and incubated with recombinant human DSG2 protein and anti-DSG2 antibodies as described previously (42). The Western blots were scanned and quantified using the ImageJ 1.32 software (National Institutes of Health, Bethesda, MD). JO-1 band intensity was set as 100%. […]

Ad3-GFP virus [5] = assay: Competition of Ad3-GFP virus infection on HeLa cells; assay type: cell-based, adenovirus serotype 3
Experimental: (§1) FIG. 3A-3D. Competition of Ad3 virus by dimerized Ad3 knob mutants. FIG. 3A) Relative attachment of ^3H-labeled Ad3 virus in the presence of dimeric fiber knob mutants. 1.8×10^5 HeLa cells were incubated with Ad3 knob mutants at a concentration of 2.5 and 100 μg/ml on ice for 1 hour. Then 400 pfu/cell of ^3H-Ad3 virus was added on ice for another hour. Unbound virus particles were washed away. Attachment of virus particles incubated with PBS was taken as 100%. N=3. FIG. 3B1-3B2) Competition of Ad3-GFP virus infection on HeLa cells. 1.5×10^5 HeLa cells were seeded into 24 well plates. Cells were incubated with the Ad3 knob mutants at increasing concentrations for one hour at room temperature. 100 pfu/cell of Ad3-GFP virus were then added and GFP expression was analyzed 18 hours later by flow cytometry. FIG. 3B1) percentage of GFP positive cells. FIG. 3B2) mean fluorescence intensity. N=3. The standard deviation was less than 10%. FIG. 3C) Relative attachment of ^3H-labeled Ad3 virus in the presence of dimeric fiber knob mutants with multiple mutations. The study was performed as described in FIG. 3B) The standard deviation was less than 10%. FIG. 3D) Competition of Ad3-GFP virus infection on HeLa cells. The study was performed as described in FIG. 3C) The standard deviation was less than 10%.
FIG. 9A1-9C. Analysis of dimeric Ad3 fiber knob mutants with increased affinity to DSG2. FIG. 9A1-9A2) Competition of Ad3-GFP virus infection on HeLa cells with dimeric affinity-enhanced mutant Y250F and JO-1 (dimeric wt Ad3 fiber knob). The experimental setting is as described for FIG. 3C. FIG. 9A1) percentage of GFP positive cells. FIG. 9A2) mean fluorescence intensity. N=3. The standard deviation was less than 10%. […] 100 pfu/cell of Ad3GFP virus were then added and GFP expression was analyzed 18 hours later. […]
Functional validation. […] Transduction was measured based on GFP expression (FIG. 3B). […] Dimeric Ad3 knob mutants with combined mutations were also analyzed for their ability to compete with Ad3 virus for attachment (FIG. 3C) and infection (FIG. 3D).

3H-labeled Ad3 virus = assay: Competition of 3H-labeled Ad3 virus attachment to HeLa cells; assay type: cell-based, adenovirus serotype 3
Experimental: as §1, with “The study was performed as described in FIG. 3B) The standard deviation was less than 10%. FIG. 3D) Competition of Ad3-GFP virus infection on HeLa cells. The study was performed as described in FIG. 3C) The standard deviation was less than 10%.” left out
Competition assays. […] After the last wash, the supernatant was removed and the cell-associated radioactivity was determined by a scintillation counter. The number of VP bound per cell was calculated by using the virion specific radioactivity and the number of cells.

[6] = even at concentrations of 200 ug/ml

B1: Ad3 knob monomer: Recombinant (trimeric) fiber knob with two shaft motifs, but without the dimerization domain (protein)
chain: NKLCSKLGNGLTFDSSNSIALKNNTLWTGPKPEANCIIEYGKQNPDSKLTLILVKNGGIVNGYVTLMGASDYVNTLFKNKNVSINVELYFDATGHILPDSSSLKTDLELKYKQTADFSARGFMPSTTAYPFVLPNAGTHNENYIFGQCYYKASDGALFPLEVTVMLNKRLPDSRTSYVMTFLWSLNAGLAPETTQATLITSPFTFSYIREDD
modifications: left off: small tags and cut ends
notes: Recombinant (trimeric) fiber knob with two shaft motifs, but without the dimerization domain
Ad3-GFP virus [1]
  Block of Ad3 infection: not able to block Ad3 infection
DSG2 [2]
  Affinity of binding to DSG2 relative to JO-1: orders of magnitude less than JO-1
[3]
  Junction opening: does not trigger junction opening

B2: N293S/noDD (protein)
chain: NKLCSKLGNGLTFDSSNSIALKNNTLWTGPKPEANCIIEYGKQNPDSKLTLILVKNGGIVNGYVTLMGASDYVNTLFKNKNVSINVELYFDATGHILPDSSSLKTDLELKYKQTADFSARGFMPSTTAYPFVLPNAGTHNENYIFGQCYYKASDGALFPLEVTVMLNKRLPDSRTSYVMTFLWSLSAGLAPETTQATLITSPFTFSYIREDD
modifications: left off: small tags and cut ends
DSG2 [4]
  association rate to DSG2, in words: lowest when compared to other mutants
  dissociation rate, in words: slower dissociation rate

B3: F265L (protein)
chain: MKVSALKEKVSALKEKVSALKEKVSALKEKVSALKEGSGGGSGGGSGGGSNSIALKNNTLWTGPKPEANCIIEYGKQNPDSKLTLILVKNGGIVNGYVTLMGASDYVNTLFKNKNVSINVELYFDATGHILPDSSSLKTDLELKYKQTADFSARGFMPSTTAYPFVLPNAGTHNENYIFGQCYYKASDGALLPLEVTVMLNKRLPDSRTSYVMTFLWSLNAGLAPETTQATLITSPFTFSYIREDD
Soluble recombinant DSG2
  DSG2 binding in Western blot, in words: almost completely ablated
Ad3-GFP virus [5]; pre-incubation with knob, GFP expression
  Inhibition of Ad3-GFP infection of HeLa cells, in words: least reduced

B4: N186D, D261N, L296R: dimeric Ad3 fiber knob with a combination of all three N186D, D261N, and L296R (protein)
chain: MKVSALKEKVSALKEKVSALKEKVSALKEKVSALKEGSGGGSGGGSGGGSNSIALKNNTLWTGPKPEANCIIEYGKQNPDSKLTLILVKNGGIVNGYVTLMGASDYVNTLFKDKNVSINVELYFDATGHILPDSSSLKTDLELKYKQTADFSARGFMPSTTAYPFVLPNAGTHNENYIFGQCYYKASNGALFPLEVTVMLNKRLPDSRTSYVMTFLWSLNAGRAPETTQATLITSPFTFSYIREDD
Soluble recombinant DSG2
  DSG2 binding in Western blot, in words: highest level of ablation
Ad3-GFP virus [5]; [6]
  Block of Ad3 infection: did not block
3H-labeled Ad3 virus; Ad3 virus attachment to HeLa cells, N=3, averages
  Inhibition of attachment in the presence of dimeric knob (JO-1 = 100%): 18.5%
3H-labeled Ad3 virus; [6]
  Block of Ad3 binding (attachment): did not block
